Measured values reported in the supplement of paper PMC10567573.

B1: C22orf31 (parent)
chain: YSLELGKAIKQKLWEALCSQGAIS

Variants of: B1
Assay: protein stability index of a GFP-peptide fusion (GPS, HEK-293T) (PSI 1-6); higher = more stable
Conditions: c terminus: a fixed tail appended
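Further: lentivirally expressed fusions sorted by FACS into six bins by GFP to DsRed ratio, PSI derived from sequencing read proportions per bin multiplied by bin number.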

**Q.** For YSLNLGKAIKQKLWEALCSQGAIS, which protein stability index is on record?
**A.** 3.57

**Q.** For YSLALGKAIKQKLWEALCSQGAIS, which protein stability index is on record?
**A.** 2.96

**Q.** With YSLMLGKAIKQKLWEALCSQGAIS as the variant, how does the protein stability index read?
**A.** 2.42

**Q.** For YSLGLGKAIKQKLWEALCSQGAIS, which protein stability index is on record?
**A.** 1.56

**Q.** Which protein stability index does the source give for YSLDLGKAIKQKLWEALCSQGAIS here?
**A.** 3.44

**Q.** Which protein stability index does the source give for YSLLLGKAIKQKLWEALCSQGAIS here?
**A.** 2.69

**Q.** For YSLHLGKAIKQKLWEALCSQGAIS, which protein stability index is on record?
**A.** 2.7

**Q.** With YSLCLGKAIKQKLWEALCSQGAIS as the variant, how does the protein stability index read?
**A.** 2.69

**Q.** Which protein stability index does the source give for YSLKLGKAIKQKLWEALCSQGAIS here?
**A.** 3.04

**Q.** Which protein stability index does the source give for YSLSLGKAIKQKLWEALCSQGAIS here?
**A.** 1.88

**Q.** For YSLYLGKAIKQKLWEALCSQGAIS, which protein stability index is on record?
**A.** 3.11

**Q.** For YSLELGYAIKQKLWEALCSQGAIS, which protein stability index is on record?
**A.** 2.1

**Q.** With YSLELGVAIKQKLWEALCSQGAIS as the variant, how does the protein stability index read?
**A.** 2.31

**Q.** With YSLELGRAIKQKLWEALCSQGAIS as the variant, how does the protein stability index read?
**A.** 1.6

**Q.** For YSLELGIAIKQKLWEALCSQGAIS, which protein stability index is on record?
**A.** 3.6

**Q.** For YSLELGQAIKQKLWEALCSQGAIS, which protein stability index is on record?
**A.** 2

**Q.** With YSLELGGAIKQKLWEALCSQGAIS as the variant, how does the protein stability index read?
**A.** 1.24

**Q.** With YSLELGDAIKQKLWEALCSQGAIS as the variant, how does the protein stability index read?
**A.** 2.63

**Q.** For YSLELGPAIKQKLWEALCSQGAIS, which protein stability index is on record?
**A.** 2.68

**Q.** For YSLELGTAIKQKLWEALCSQGAIS, which protein stability index is on record?
**A.** 2.46

**Q.** With YSLELGKAIKQILWEALCSQGAIS as the variant, how does the protein stability index read?
**A.** 3.58

**Q.** For YSLELGKAIKQELWEALCSQGAIS, which protein stability index is on record?
**A.** 1.85

**Q.** With YSLELGKAIKQFLWEALCSQGAIS as the variant, how does the protein stability index read?
**A.** 2.11

**Q.** With YSLELGKAIKQGLWEALCSQGAIS as the variant, how does the protein stability index read?
**A.** 1.07

**Q.** For YSLELGKAIKQALWEALCSQGAIS, which protein stability index is on record?
**A.** 3.38

**Q.** With YSLELGKAIKQLLWEALCSQGAIS as the variant, how does the protein stability index read?
**A.** 2.66

**Q.** Which protein stability index does the source give for YSLELGKAIKQWLWEALCSQGAIS here?
**A.** 2.25

**Q.** Which protein stability index does the source give for YSLELGKAIKQPLWEALCSQGAIS here?
**A.** 1.51

**Q.** For YSLELGKAIKQDLWEALCSQGAIS, which protein stability index is on record?
**A.** 1.56

**Q.** For YSLELGKAIKQSLWEALCSQGAIS, which protein stability index is on record?
**A.** 1.39

**Q.** For YSLELGKAIKQTLWEALCSQGAIS, which protein stability index is on record?
**A.** 2.87

**Q.** With YSLELGKAIKQKLWEALCSQFAIS as the variant, how does the protein stability index read?
**A.** 2.94

**Q.** Which protein stability index does the source give for YSLELGKAIKQKLWEALCSQIAIS here?
**A.** 4.15

**Q.** For YSLELGKAIKQKLWEALCSQDAIS, which protein stability index is on record?
**A.** 1.94

**Q.** For YSLELGKAIKQKLWEALCSQNAIS, which protein stability index is on record?
**A.** 3.07

**Q.** Which protein stability index does the source give for YSLELGKAIDQKLWEALCSQGAIS here?
**A.** 1.63

**Q.** With YSLELGKAIFQKLWEALCSQGAIS as the variant, how does the protein stability index read?
**A.** 3.08

**Q.** With YSLELGKAIQQKLWEALCSQGAIS as the variant, how does the protein stability index read?
**A.** 2.64

**Q.** With YSLELGKAIHQKLWEALCSQGAIS as the variant, how does the protein stability index read?
**A.** 1.95

**Q.** Which protein stability index does the source give for YSLELGKAIMQKLWEALCSQGAIS here?
**A.** 2.22

**Q.** Which protein stability index does the source give for YSLELGKAIYQKLWEALCSQGAIS here?
**A.** 1.9

**Q.** With YSLELGKAQKQKLWEALCSQGAIS as the variant, how does the protein stability index read?
**A.** 1.94

**Q.** With YSLELGKAPKQKLWEALCSQGAIS as the variant, how does the protein stability index read?
**A.** 1.99

**Q.** With YSLELGKAVKQKLWEALCSQGAIS as the variant, how does the protein stability index read?
**A.** 2.26

**Q.** Which protein stability index does the source give for YSLELGKAKKQKLWEALCSQGAIS here?
**A.** 2.24

**Q.** For YSLELGKAAKQKLWEALCSQGAIS, which protein stability index is on record?
**A.** 1.35

**Q.** With YSLELGKACKQKLWEALCSQGAIS as the variant, how does the protein stability index read?
**A.** 1.79

**Q.** With YSLELGKAMKQKLWEALCSQGAIS as the variant, how does the protein stability index read?
**A.** 1.07

**Q.** With YSLELGKAGKQKLWEALCSQGAIS as the variant, how does the protein stability index read?
**A.** 1.84

**Q.** With YSLELGKASKQKLWEALCSQGAIS as the variant, how does the protein stability index read?
**A.** 1.97

**Q.** For YSLELGKAHKQKLWEALCSQGAIS, which protein stability index is on record?
**A.** 2.07

**Q.** For YSLELGKPIKQKLWEALCSQGAIS, which protein stability index is on record?
**A.** 1.84

**Q.** With YSLELGKMIKQKLWEALCSQGAIS as the variant, how does the protein stability index read?
**A.** 2.31

**Q.** For YSLELGKRIKQKLWEALCSQGAIS, which protein stability index is on record?
**A.** 2.51

**Q.** Which protein stability index does the source give for YSLELGKGIKQKLWEALCSQGAIS here?
**A.** 1.63

**Q.** For YSLELGKVIKQKLWEALCSQGAIS, which protein stability index is on record?
**A.** 2.75

**Q.** For YSLELGKDIKQKLWEALCSQGAIS, which protein stability index is on record?
**A.** 1.76

**Q.** With YSLELGKNIKQKLWEALCSQGAIS as the variant, how does the protein stability index read?
**A.** 2.57

**Q.** With YSLELGKYIKQKLWEALCSQGAIS as the variant, how does the protein stability index read?
**A.** 2.97

**Q.** Which protein stability index does the source give for YSLELGKAIKQKLWEALCCQGAIS here?
**A.** 2.31

**Q.** With YSLELGKAIKQKLWEALCNQGAIS as the variant, how does the protein stability index read?
**A.** 3.94

**Q.** For YSLELGKAIKQKLWEALCDQGAIS, which protein stability index is on record?
**A.** 1.88

**Q.** With YSLELGKAIKQKLWEALCQQGAIS as the variant, how does the protein stability index read?
**A.** 1.95

**Q.** With YSLELGKAIKQKLWEALCFQGAIS as the variant, how does the protein stability index read?
**A.** 2.56

**Q.** Which protein stability index does the source give for YSLELGKAIKQKLWEALCSQGAIY here?
**A.** 3.7

**Q.** Which protein stability index does the source give for YSLELGKAIKQKLWEALCSQGAIR here?
**A.** 2.69

**Q.** Which protein stability index does the source give for YSLELGKAIKQKLWEALCSQGAIH here?
**A.** 2.01

**Q.** With YSLELGKAIKQKLWEALCSQGAIN as the variant, how does the protein stability index read?
**A.** 2.63

**Q.** For YSLELNKAIKQKLWEALCSQGAIS, which protein stability index is on record?
**A.** 1.91

**Q.** For YSLELAKAIKQKLWEALCSQGAIS, which protein stability index is on record?
**A.** 1.94

**Q.** Which protein stability index does the source give for YSLELPKAIKQKLWEALCSQGAIS here?
**A.** 1.36

**Q.** Which protein stability index does the source give for YSLELRKAIKQKLWEALCSQGAIS here?
**A.** 2.73

**Q.** With YSLELLKAIKQKLWEALCSQGAIS as the variant, how does the protein stability index read?
**A.** 2.97

**Q.** Which protein stability index does the source give for YSLELFKAIKQKLWEALCSQGAIS here?
**A.** 2.28

**Q.** With YSLELYKAIKQKLWEALCSQGAIS as the variant, how does the protein stability index read?
**A.** 2.27

**Q.** Which protein stability index does the source give for YSLELKKAIKQKLWEALCSQGAIS here?
**A.** 1.73

**Q.** For YSLELCKAIKQKLWEALCSQGAIS, which protein stability index is on record?
**A.** 2.16

**Q.** With YSLELHKAIKQKLWEALCSQGAIS as the variant, how does the protein stability index read?
**A.** 1.59

**Q.** For YSLELGKAIKQKLWPALCSQGAIS, which protein stability index is on record?
**A.** 2.25

**Q.** Which protein stability index does the source give for YSLELGKAIKQKLWRALCSQGAIS here?
**A.** 3.18

**Q.** Which protein stability index does the source give for YSLELGKAIKQKLWHALCSQGAIS here?
**A.** 1.65

**Q.** Which protein stability index does the source give for YSLELGKAIKQKLWNALCSQGAIS here?
**A.** 3

**Q.** With YSLELGKAIKQKLWQALCSQGAIS as the variant, how does the protein stability index read?
**A.** 1.41

**Q.** Which protein stability index does the source give for YPLELGKAIKQKLWEALCSQGAIS here?
**A.** 2.3

**Q.** For YELELGKAIKQKLWEALCSQGAIS, which protein stability index is on record?
**A.** 1.59

**Q.** With YQLELGKAIKQKLWEALCSQGAIS as the variant, how does the protein stability index read?
**A.** 1.57

**Q.** Which protein stability index does the source give for YYLELGKAIKQKLWEALCSQGAIS here?
**A.** 3.28

**Q.** Which protein stability index does the source give for YSLELGKAIKGKLWEALCSQGAIS here?
**A.** 3.21

**Q.** With YSLELGKAIKSKLWEALCSQGAIS as the variant, how does the protein stability index read?
**A.** 2.01

**Q.** With YSLELGKAIKYKLWEALCSQGAIS as the variant, how does the protein stability index read?
**A.** 1.92

**Q.** With YSLELGKAIKRKLWEALCSQGAIS as the variant, how does the protein stability index read?
**A.** 3.36

**Q.** Which protein stability index does the source give for YSLELGKAIKIKLWEALCSQGAIS here?
**A.** 1.75

**Q.** Which protein stability index does the source give for YSMELGKAIKQKLWEALCSQGAIS here?
**A.** 2.18

**Q.** With YSPELGKAIKQKLWEALCSQGAIS as the variant, how does the protein stability index read?
**A.** 1.64
